Reference: patent publication US20150290345A1

Target: Recombinant Human ErbB2/Fc Chimera (R&D Systems, Inc.) (human) (UniProt P04626)
Assay: SPR, ProteOn XPR36; ErbB2/Fc amine-coupled on GLM chip (about 3000 RU), 1:1 Langmuir fit

Row | Substance | Kd
1 | L1-ICG-HSA (Affibody-immobilized ICG-HSA, SM(PEG)2 linker at 10 times the molar amount of ICG-HSA) (from UniProt P02768 25-609) | 2.3 nM
2 | L2-ICG-HSA (Affibody-immobilized ICG-HSA, SM(PEG)2 linker at 100 times the molar amount of ICG-HSA) (from UniProt P02768 25-609) | 0.24 nM
